Assay results as given in patent US20060257938A1, “Method of screening for drugs that block ligand binding to a lipid binding protein” (priority 2005, published 2006).
Numbering of substitutions follows the chain as printed.

B1: 115W, 72A (protein, listed as Rattus norvegicus)
chain: AFDGTWKVDRNENYEKFMEKMGINVVKRKLGAHDNLKLTITQEGNKFTVKESSNFRNIDVVFELGVDFAYSAADGTELTGTWTMEGNKLVGKFKRVDNGKELIAVREISGNELIWTYTYEGVEAKRIFKKE
modifications: PEPTIDE (1)...(131) wild-type rat intestinal fatty acid binding protein
B2: 40V, 72A (protein, listed as Rattus norvegicus)
chain: B1 chain with I40V, W115Q
modifications: PEPTIDE (1)...(131) wild-type rat intestinal fatty acid binding protein
B3: 106H, 72A (protein, listed as Rattus norvegicus)
chain: B1 chain with R106H, W115Q
modifications: PEPTIDE (1)...(131) wild-type rat intestinal fatty acid binding protein
B4: 106F, 72A (protein, listed as Rattus norvegicus)
chain: B1 chain with R106F, W115Q
modifications: PEPTIDE (1)...(131) wild-type rat intestinal fatty acid binding protein
B5: 91Y, 72A (protein, listed as Rattus norvegicus)
chain: B1 chain with G91Y, W115Q
modifications: PEPTIDE (1)...(131) wild-type rat intestinal fatty acid binding protein
B6: 38G, 72A (protein, listed as Rattus norvegicus)
chain: B1 chain with L38G, W115Q
modifications: PEPTIDE (1)...(131) wild-type rat intestinal fatty acid binding protein
B7: 72A 117A (protein, listed as Rattus norvegicus)
chain: B1 chain with W115Q, Y117A
modifications: PEPTIDE (1)...(131) wild-type rat intestinal fatty acid binding protein
B8: 38H, 72A (protein, listed as Rattus norvegicus)
chain: B1 chain with L38H, W115Q
modifications: PEPTIDE (1)...(131) wild-type rat intestinal fatty acid binding protein
B9: 70W, 72A (protein, listed as Rattus norvegicus)
chain: B1 chain with Y70W, W115Q
modifications: PEPTIDE (1)...(131) wild-type rat intestinal fatty acid binding protein
B10: 70H, 72A (protein, listed as Rattus norvegicus)
chain: B1 chain with Y70H, W115Q
modifications: PEPTIDE (1)...(131) wild-type rat intestinal fatty acid binding protein
B11: 126K, 72A (protein, listed as Rattus norvegicus)
chain: B1 chain with W115Q, R126K
modifications: PEPTIDE (1)...(131) wild-type rat intestinal fatty acid binding protein
B12: 55L, 72A (protein, listed as Rattus norvegicus)
chain: B1 chain with F55L, W115Q
modifications: PEPTIDE (1)...(131) wild-type rat intestinal fatty acid binding protein
B13: 18K, 72A (protein, listed as Rattus norvegicus)
chain: B1 chain with M18K, W115Q
modifications: PEPTIDE (1)...(131) wild-type rat intestinal fatty acid binding protein
B14: 91C, 72A (protein, listed as Rattus norvegicus)
chain: B1 chain with G91C, W115Q
modifications: PEPTIDE (1)...(131) wild-type rat intestinal fatty acid binding protein
B15: 70S, 72A (protein, listed as Rattus norvegicus)
chain: B1 chain with Y70S, W115Q
modifications: PEPTIDE (1)...(131) wild-type rat intestinal fatty acid binding protein

Experiment: Probe fluorescence ratio response to arachidonic acid relative to ADIFAB2
Type: binding
Conditions: arachidonic acid; response relative to ADIFAB2
Procedure, shortened: (§1)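 Fluorescently labeled rat intestinal FABP variants were read at two emission wavelengths, near the unbound maximum (about 420 to 480 nm) and the FFA-bound maximum (about 495 to 580 nm). R = Fλ1/Fλ2 after subtracting probe-free intensity; ΔR = R+agent − R0, normalized to ADIFAB2 (rI-FABP-L72A).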

In order of rising “DR/DR AA” value:
1. B9  0.349
2. B11  0.625
3. B15  0.625
4. B3  0.636
5. B10  0.751
6. B4  0.754
7. B13  0.800
8. B12  0.863
9. B6  0.996
10. B8  0.998
11. B2  1.013
12. B14  1.201
13. B5  1.273
14. B7  1.480
15. B1  1.483

Experiment: Probe fluorescence ratio response to linolenic acid relative to ADIFAB2
Type: binding
Conditions: response relative to ADIFAB2
Procedure, shortened: as §1

In order of rising “DR/DR LNA” value:
1. B9  0.385
2. B3  0.633
3. B7  0.689
4. B15  0.703
5. B4  0.706
6. B12  0.719
7. B8  0.864
8. B10  0.886
9. B13  0.925
10. B6  0.992
11. B11  1.017
12. B2  1.059
13. B1  1.396
14. B14  1.420
15. B5  1.626

Experiment: Probe fluorescence ratio response to linoleic acid relative to ADIFAB2
Type: binding
Conditions: response relative to ADIFAB2
Procedure, shortened: as §1

In order of falling “DR/DR LA” value:
1. B1  1.486
2. B5  1.415
3. B14  1.371
4. B7  1.193
5. B2  1.057
6. B11  1.039
7. B6  1.003
8. B13  0.967
9. B10  0.929
10. B8  0.905
11. B4  0.812
12. B15  0.794
13. B12  0.706
14. B3  0.669
15. B9  0.451

Experiment: Probe fluorescence ratio response to oleic acid relative to ADIFAB2
Type: binding
Conditions: response relative to ADIFAB2
Procedure, shortened: as §1

In order of rising “DR/DR OA” value:
1. B9  0.381
2. B11  0.631
3. B15  0.727
4. B3  0.732
5. B13  0.803
6. B4  0.815
7. B12  0.822
8. B10  0.836
9. B6  0.945
10. B8  0.955
11. B2  1.002
12. B7  1.080
13. B1  1.352
14. B14  1.470
15. B5  1.706

Experiment: Probe fluorescence ratio response to palmitic acid relative to ADIFAB2
Type: binding
Conditions: response relative to ADIFAB2
Procedure, shortened: as §1

In order of falling “DR/DR PA” value:
1. B5  0.870
2. B2  0.867
3. B1  0.805
4. B14  0.794
5. B12  0.631
6. B8  0.624
7. B10  0.567
8. B13  0.544
9. B6  0.447
10. B7  0.433
11. B15  0.416
12. B4  0.369
13. B11  0.356
14. B3  0.258
15. B9  0.212
